According to the Human Domainome abundance scans (Beltran et al. 2025):
± gives the uncertainty stated by the source.

B1: Zinc finger MYM-type protein 6, residues 427 to 504; numbered along this chain, O95789 (parent)
chain: KLKCQHCNHLFATKPELLFYKGKMFLFCGKNCSDEYKKKNKVVAMCDYCKLQKIIKETVRFSGVDKPFCSEVCKFLSA
B2: Far upstream element-binding protein 3, residues 75 to 150; numbered along this chain, Q96I24 (parent)
chain: RTVITEEFKVPDKMVGFIIGRGGEQISRIQAESGCKIQIASESSGIPERPCVLTGTPESIEQAKRLLGQIVDRCRN

Variants of: B1
Experiment: abundance fitness (aPCA) (normalised: wild type 0, dead -1); higher = more abundant; growth selection in yeast, the domain comes from the species named
Conditions: Homo sapiens

Row | Variant | abundance fitness
1 | F68E | -0.278 ± 0.1
2 | F68K | -0.476 ± 0.21
3 | F68L | -0.288 ± 0.13
4 | F68M | 0.263 ± 0.14
5 | F68P | -0.113 ± 0.14
6 | F68Q | -0.341 ± 0.17
7 | F68R | -0.516 ± 0.11
8 | F68S | -0.842 ± 0.17
9 | F68T | -0.555 ± 0.35
10 | F68W | -0.651 ± 0.12
11 | F68Y | 0.439 ± 0.39
12 | C69A | -1.23 ± 0.28
13 | C69E | -0.286 ± 0.15
14 | C69G | -0.731 ± 0.097
15 | C69K | -0.637 ± 0.18
16 | C69L | -0.954 ± 0.24
17 | C69M | -0.443 ± 0.16
18 | C69P | -0.391 ± 0.18
19 | C69Q | -0.404 ± 0.19
20 | C69R | -0.602 ± 0.097
21 | C69S | -0.539 ± 0.15
22 | C69T | -0.902 ± 0.24
23 | C69V | -1.03 ± 0.28
24 | C69W | -0.71 ± 0.16

Row | Variant | abundance fitness
25 | S70A | -0.651 ± 0.12
26 | S70C | -0.425 ± 0.2
27 | S70D | -0.498 ± 0.19
28 | S70G | -0.502 ± 0.098
29 | S70H | -0.248 ± 0.18
30 | S70K | -0.635 ± 0.39
31 | S70L | -0.162 ± 0.2
32 | S70M | -0.482 ± 0.21
33 | S70P | -0.563 ± 0.48
34 | S70Q | -0.578 ± 0.17
35 | S70R | -0.925 ± 0.14
36 | S70V | -1.05 ± 0.16
37 | S70W | -1.14 ± 0.27
38 | S70Y | -0.673 ± 0.48
39 | E71A | -0.188 ± 0.092
40 | E71G | -0.292 ± 0.092
41 | E71H | -0.09 ± 0.39
42 | E71K | 0.16 ± 0.17
43 | E71L | -0.962 ± 0.19
44 | E71M | 0.094 ± 0.14
45 | E71N | 0.491 ± 0.44
46 | E71P | -0.054 ± 0.16
47 | E71Q | -0.194 ± 0.23
48 | E71R | -0.111 ± 0.081

Row | Variant | abundance fitness
49 | E71S | -0.239 ± 0.14
50 | E71T | 0.076 ± 0.1
51 | E71V | -0.386 ± 0.11
52 | E71W | -0.634 ± 0.18
53 | E71Y | -0.28 ± 0.19
54 | V72A | 0.252 ± 0.07
55 | V72C | 0.553 ± 0.2
56 | V72E | 0.535 ± 0.073
57 | V72G | 0.036 ± 0.073
58 | V72H | 0.016 ± 0.33
59 | V72K | 0.775 ± 0.19
60 | V72L | 0.003 ± 0.12
61 | V72N | 0.64 ± 0.15
62 | V72Q | 0.562 ± 0.086
63 | V72R | 0.411 ± 0.066
64 | V72S | 0.239 ± 0.092
65 | V72T | 0.216 ± 0.1
66 | V72W | 0.353 ± 0.094
67 | V72Y | 0.757 ± 0.3
68 | C73A | -0.627 ± 0.12
69 | C73D | -0.505 ± 0.37
70 | C73E | -0.885 ± 0.18
71 | C73G | -0.638 ± 0.12
72 | C73I | -0.753 ± 0.29

Row | Variant | abundance fitness
73 | C73M | -0.142 ± 0.15
74 | C73P | -1.51 ± 0.47
75 | C73Q | -0.944 ± 0.32
76 | C73R | -0.863 ± 0.15
77 | C73V | -0.728 ± 0.26
78 | C73W | -0.751 ± 0.21
79 | K74A | -0.025 ± 0.12
80 | K74E | -0.39 ± 0.16
81 | K74F | -0.594 ± 0.49
82 | K74G | -0.427 ± 0.13
83 | K74L | -0.594 ± 0.15
84 | K74M | 0.544 ± 0.11
85 | K74N | -0.996 ± 0.23
86 | K74Q | -0.123 ± 0.13
87 | K74R | -0.298 ± 0.12
88 | K74S | -0.705 ± 0.2
89 | K74T | -0.017 ± 0.3
90 | K74V | -0.674 ± 0.14
91 | F75A | 0.488 ± 0.079
92 | F75C | 0.677 ± 0.09
93 | F75D | 0.671 ± 0.11
94 | F75G | 0.484 ± 0.061
95 | F75I | 0.02 ± 0.22
96 | F75K | 0.533 ± 0.1

Row | Variant | abundance fitness
97 | F75L | 0.365 ± 0.072
98 | F75N | 0.487 ± 0.24
99 | F75P | 0.039 ± 0.12
100 | F75Q | 0.096 ± 0.28
101 | F75R | 0.499 ± 0.063
102 | F75S | 0.48 ± 0.14
103 | F75T | 0.557 ± 0.096
104 | F75V | 0.256 ± 0.063
105 | F75Y | -0.699 ± 0.42
106 | L76C | 0.183 ± 0.18
107 | L76G | -0.052 ± 0.073
108 | L76H | 0.095 ± 0.32
109 | L76M | 0.759 ± 0.09
110 | L76P | -0.5 ± 0.35
111 | L76Q | 0.603 ± 0.13
112 | L76R | 0.209 ± 0.073
113 | L76T | -0.109 ± 0.28
114 | L76V | -0.581 ± 0.098
115 | L76W | -0.174 ± 0.11
116 | L76Y | -0.189 ± 0.33
117 | S77A | -0.129 ± 0.097
118 | S77C | -0.104 ± 0.22
119 | S77D | -0.14 ± 0.17
120 | S77E | -0.615 ± 0.22

Row | Variant | abundance fitness
121 | S77G | 0.139 ± 0.079
122 | S77L | -1.36 ± 0.4
123 | S77N | -0.434 ± 0.25
124 | S77Q | -0.303 ± 0.24
125 | S77R | -0.394 ± 0.09
126 | S77T | -1.01 ± 0.37
127 | S77V | -0.857 ± 0.24
128 | S77W | -0.106 ± 0.093
129 | S77Y | -0.09 ± 0.28
130 | A78C | -0.897 ± 0.43
131 | A78D | 0.891 ± 0.22
132 | A78E | -0.067 ± 0.31
133 | A78G | 0.022 ± 0.18
134 | A78M | 0.774 ± 0.16
135 | A78N | -0.301 ± 0.14
136 | A78R | -0.142 ± 0.15
137 | A78S | -0.11 ± 0.14
138 | A78V | -0.292 ± 0.12
139 | A78W | -0.284 ± 0.42

Variants of: B2
Experiment: as above
Conditions: Homo sapiens

Row | Variant | abundance fitness
140 | E7D | -0.02 ± 0.047
141 | Q38C | -0.053 ± 0.048
142 | D72P | -0.142 ± 0.039
143 | C51Q | -0.688 ± 0.066
144 | N76C | -0.069 ± 0.06
145 | S44I | -0.07 ± 0.086
146 | D72K | -0.048 ± 0.049
147 | T5Q | -0.099 ± 0.046
148 | T2H | -0.06 ± 0.062
149 | E48T | -0.109 ± 0.036
150 | R73I | -0.136 ± 0.07
151 | F17L | -0.065 ± 0.034
152 | S43V | -0.057 ± 0.032
153 | E6A | -0.067 ± 0.03
154 | V15F | -0.072 ± 0.053
155 | G45A | -0.041 ± 0.029
156 | E58S | -0.05 ± 0.039
157 | K36A | -0.065 ± 0.034
158 | T2P | -0.106 ± 0.044
159 | C35V | -0.157 ± 0.032
160 | I18P | -0.192 ± 0.041
161 | E61S | -0.026 ± 0.035
162 | V3W | -0.106 ± 0.035
163 | S41A | -0.035 ± 0.031
164 | T56H | -0.106 ± 0.051
165 | S41V | -0.089 ± 0.03
166 | Q25G | -0.058 ± 0.026
167 | R65S | -0.026 ± 0.035
